Laboratory results published in patent publication US20250313619A1, “RISANKIZUMAB COMPOSITIONS” (ABBVIE INC., priority 0001, published 2025).

What was measured:
[1] = Size exclusion chromatography (UP-SEC/SEC): monomer and HMW; assay type: physicochemical; settings: compared to Process 1 reference standard DS1-RS2
Text: (§1) The PLBL2 KO, PLA2G15 KO, LPL KO and wild-type process control materials were thawed and purified using Process 1 (see Example 1), while ultrafiltration/diafiltration (UF/DF) followed Process 4 (see Example 3). […] High molecular weight (HMW) by size exclusion chromatography (SEC), charge variants by weak cation exchange chromatography (WCX), low molecular weight (LMW) by non-reduced capillary electrophoresis sodium dodecyl sulfate (CE-SDS), free fatty acids (FFA) and PS20 levels were monitored during the stability study at various time points.
(§2) Antibody preparations derived from the knock-out samples and controls were tested for the presence of the three lipases by specific ELISA methods: PLBL2 and PLA2G15 were measured using CHO-specific in-house methods and LPL was measured using a commercial anti-mouse ELISA kit. PS20 stability was measured in samples that were incubated for different lengths of time (several time points over a 12-month period) and different temperatures (5° C., 25° C., 40° C.) using two different methods. One method measured the total amount of PS20 present in the sample; PS20 was quantified directly by using a RP-HPLC-CAD method. The other method assessed the breakdown of PS20 by measuring the amount of free fatty acid, mainly lauric acid that was released by hydrolysis. […] The generated signal is directly proportional to the quantity of FFAs released. […]

[2] = Non-reduced capillary gel electrophoresis (CGE-NR / CE-SDS): main peak and LMW; assay type: physicochemical; settings: compared to Process 1 reference standard DS1-RS2
Text: as §1, §2

IL-23 [3] = target: T1, IL-23 (Homo sapiens, UniProt Q9NPF7); assay: Inhibition of IL-23 stimulated IL-17 production; assay type: cell-based; settings: read-out: inhibition of IL-23 stimulated IL-17 production, inhibitory concentration (IC) 50
T1 sequence (Q9NPF7 20-189): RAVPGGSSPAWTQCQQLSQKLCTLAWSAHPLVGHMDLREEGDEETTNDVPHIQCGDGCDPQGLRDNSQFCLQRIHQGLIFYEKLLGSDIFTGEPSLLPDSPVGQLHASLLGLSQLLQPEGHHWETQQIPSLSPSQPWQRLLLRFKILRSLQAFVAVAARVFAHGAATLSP
T1 sequence (P29460 23-328 partner): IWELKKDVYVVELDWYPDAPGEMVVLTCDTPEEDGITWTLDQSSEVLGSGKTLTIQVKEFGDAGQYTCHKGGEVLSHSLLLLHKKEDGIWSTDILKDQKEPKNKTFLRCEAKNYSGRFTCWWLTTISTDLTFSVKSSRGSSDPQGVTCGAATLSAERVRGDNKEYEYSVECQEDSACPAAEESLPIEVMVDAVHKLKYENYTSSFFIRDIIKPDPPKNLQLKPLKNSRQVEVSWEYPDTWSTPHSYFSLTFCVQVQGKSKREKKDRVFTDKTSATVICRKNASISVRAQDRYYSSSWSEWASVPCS

IL-12 = target: T2, IL-12 (Homo sapiens, UniProt P29459+P29460); assay: IL-12 effect / IL-12 stimulated IFN-γ production; assay type: cell-based
T2 sequence (P29459 23-219): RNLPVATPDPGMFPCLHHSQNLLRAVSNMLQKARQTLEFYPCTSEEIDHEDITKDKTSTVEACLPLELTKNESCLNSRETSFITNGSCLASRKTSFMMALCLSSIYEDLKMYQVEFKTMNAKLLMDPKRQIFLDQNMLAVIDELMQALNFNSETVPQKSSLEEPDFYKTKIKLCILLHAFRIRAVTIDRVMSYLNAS
T2 sequence (P29460 23-328): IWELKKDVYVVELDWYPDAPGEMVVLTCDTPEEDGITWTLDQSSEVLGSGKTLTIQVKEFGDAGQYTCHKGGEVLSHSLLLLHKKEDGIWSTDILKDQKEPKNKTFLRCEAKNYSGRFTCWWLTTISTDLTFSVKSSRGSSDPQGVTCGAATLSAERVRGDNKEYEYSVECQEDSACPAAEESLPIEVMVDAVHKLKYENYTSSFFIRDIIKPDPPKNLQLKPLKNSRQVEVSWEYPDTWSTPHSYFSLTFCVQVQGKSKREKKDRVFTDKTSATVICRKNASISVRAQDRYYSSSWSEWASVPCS

IL-23 [4] = target: T1, IL-23; assay: Binding to human IL-23
healthy adult subjects = assay: Anti-drug antibody (ADA) incidence after single 150 mg SC dose, bridging electrochemiluminescence immunoassay; assay type: in vivo, human; settings: 113 days
Procedure: A single-dose, randomized, two-parallel-arm, open-label, multi-center study in healthy adult subjects was carried out. Subjects received a risankizumab 150 mg dose by subcutaneous (SC) injection in the abdomen using a 150 mg/ml formulation in a prefilled syringe (PFS). Arm 1: Risankizumab 150 mg/mL formulation in PFS produced by Process 4 (150 mg×1 SC injection) (test, N=132); Arm 2: Risankizumab 150 mg/mL formulation in PFS produced by Process 2 (150 mg×1 SC injection) (reference, N=130). Serial blood samples for anti-drug antibody (ADA) were collected over a period of 113 days. […]
The presence of ADA was determined using a validated titer based bridging electrochemiluminescence immunoassay as described below.
This is a qualitative assay designed to detect anti-risankizumab antibodies in human serum. Anti-drug antibodies (ADA) against risankizumab in human serum were detected using an electrochemiluminescent (ECL) immunoassay. […] This complex was bound to a blocked MSD-streptavidin (MSD-SA) plate and detected by a chemiluminescent signal that was generated when voltage was applied. […]
Samples were analyzed in a tiered approach. […]
The confirmatory assay measured the percent inhibition of ECL immunoassay signals of screened positive samples when spiked with excess risankizumab. […]

ADCC activity = assay: ADCC activity
Text: (§3) Risankizumab has been designed with Leu234Aa and Leu235Aa mutations in Fc to diminish its Fc effector binding activity.

CDC activity = assay: CDC activity
Text: as §3

[5] = Hitchhiker protein spiking study, PS20-CAD subspecies method; assay type: biochemical; settings: for activity to PS20 degradation: DP3 and DP4 materials spiked with enzyme (summary); for PS20 degradation: ~30 hours incubation at 25° C.
Text: PS20-CAD subspecies method was used. This method was originally developed to qualitatively determine subspecies composition and to quantify the PS20 subspecies relative to a PS20 manufacturing standard. The HPLC system used in this study was an Agilent 1260 II infinity HPLC equipped with a quaternary pump, mobile phase degassing unit, refrigerated auto sampler, temperature controlled column compartment, and a Thermo Scientific charged aerosol detector (CAD). Data was collected by Waters Empower acquisition system. Methods for detecting PS20 using Charged Aerosol Detector (CAD) are also described in Example 10.
Since the system takes 70 minutes to finish each injection (labeled as “injection” in Table 19), repeated injections measured the degradation patterns (profiles) at different incubation times. All samples were kept in a 25° C. autosampler during the entire test.
PS20-CAD subspecies method described above was used.
The solution was mixed and tested. All samples were studied at 25° C.
The solution was mixed and tested. All samples were studied at 25° C. […] More information can be found in Table 21A.
The solution was mixed and tested. More information regarding the study design can be found in Table 21A.
The solution was mixed and tested. More information regarding the study design can be found in Table 21B below.
The solution was mixed and tested. More information regarding the study design can be found in Table 21B.

For “DS4-005: risankizumab Process 4 drug substance batch”, the “HMW peak by UP-SEC” value [1] was “smaller” and the “LMW peak by CGE-NR” value [2] was “smaller”.

With “Immunoglobulin G1, anti-(human interleukin 23 subunit p19) (human-Mus musculus heavy chain), disulfide with human-Mus musculus κ-chain, dimer [risankizumab]” the IC50 (IL-23 [3]) was < 0.01 nM, the “inhibition of IL-12 stimulated IFN-γ production” value (IL-12) was “does not inhibit” and the “effect on IL-12” value (IL-12; maximum tested concentration (33 nM)) was “does not affect”. For the same molecule, the “binding to human IL-23” value (IL-23 [4]) was “high affinity”, the “treatment-emergent ADA incidence” value (healthy adult subjects) was “low” and the ADCC activity (ADCC activity) was “does not possess”. The COC activity (CDC activity) was “does not possess”.

With “ustekinumab: comparator in the same IL-23 stimulated IL-17 production system [reference compound]” the IC50 (IL-23 [3]) was 0.167 nM.

B1: PLA2G7: Recombinant human PLA2G7/PAF-AH/LP-PLA2 protein (5106-PL-010, Bio-techne) (protein, UniProt Q13093 22-441, looked up)
Platelet-activating factor …: FDWQYINPVAHMKSSAWVNKIQVLMAAASFGQTKIPRGNGPYSVGCTDLMFDHTNKGTFLRLYYPSQDNDRLDTLWIPNKEYFWGLSKFLGTHWLMGNILRLLFGSMTTPANWNSPLRPGEKYPLVVFSHGLGAFRTLYSAIGIDLASHGFIVAAVEHRDRSASATYYFKDQSAAEIGDKSWLYLRTLKQEEETHIRNEQVRQRAKECSQALSLILDIDHGKPVKNALDLKFDMEQLKDSIDREKIAVIGHSFGGATVIQTLSEDQRFRCGIALDAWMFPLGDEVYSRIPQPLFFINSEYFQYPANIIKMKKCYSPDKERKMITIRGSVHQNFADFTFATGKIIGHMLKLKGDIDSNVAIDLSNKASLAFLQKHLGLHKDFDQWDCLIEGDDENLIPGTNINTTNQHIMLQNSSGIEKYN
For B1, the “activity to PS20 degradation” value [5] was “moderate activities”, the “PS20 degradation pattern (profile) versus pattern observed in DP2 materials” value ([5]; DP3 spiked with 5 μg/mL enzyme, 25° C.) was “very different” and the PS20 degradation ([5]; DP3 spiked with 5 μg/mL enzyme) was “caused PS20 degradation with a relatively high activity”.

B2: PRDX6: Recombinant human Peroxiredoxin 6 protein (ab87631, Abcam) (protein, UniProt P30041 2-224, looked up)
Peroxiredoxin-6: PGGLLLGDVAPNFEANTTVGRIRFHDFLGDSWGILFSHPRDFTPVCTTELGRAAKLAPEFAKRNVKLIALSIDSVEDHLAWSKDINAYNCEEPTEKLPFPIIDDRNRELAILLGMLDPAEKDEKGMPVTARVVFVFGPDKKLKLSILYPATTGRNFDEILRVVISLQLTAEKRVATPVDWKDGDSVMVLPTIPEEEAKKLFPKGVFTKELPSGKKYLRYTPQP
For B2, the “activity to PS20 degradation” value [5] was “very low activities” and the PS20 degradation ([5]; DP3 spiked with 5 μg/mL enzyme) was “no detectable PS20 degradation”.

B3: PLA2G15: hitchhiker protein enzyme spiked into DP3/DP4 material (protein)
chain: VQRHPPVVLVPGDLGNQLEAKLDKPKVVHYLCSKRTDSYFTLWLNLELLLPVIIDCWIDNIRLVYNRTSRATQFPDGVDVRVPGFGETFSLEFLDPSKRTVGSYFHTMVESLVGWGYTRGEDLRGAPYDWRRAPNENGPYFLALREMIEEMYQMYGGPVVLVAHSMGNMYTLYFLQRQPQAWKDKYIHAFISLGAPWGGVAKTLRVLASGDNNRIPVIGPLKIREQQRSAVSTSWLLPYNHTWSHDKVFVHTPTTNYTLRDYHQFFQDIRFEDGWFMRQDTEGLVEAMMPPGVELHCLYGTGVPTPDSFYYESFPDRDPKICFGDGDGTVNLESVLQCQAWQSRQEHKVSLQELPGSEHIEMLANATTLAYLKRVLFEP
In the case of B3, the “PS20 degradation pattern (profile) versus pattern observed in DP2 materials” value ([5]; DP3 spiked with 1 μg/mL PLA2G15, 25° C.) is reported as “matches” and the “PS20 degradation rate versus spiking level” value ([5]; DP4 spiked with 0.01875-0.6 ng/mg PLA2G15, 25° C.) is reported as “concentration dependent PS20 degradation rates were observed”.
